Measurements published in patent publication US6942981.
Ends that are not written are not given here. * marks the point of attachment. Biotin = O=C1N[C@H]2[C@H](CS[C@H]2CCCCC(=O)*)N1

Legend:
[1] = target: T1, GST-NeDLG PDZ domains 1-2 fusion protein (Mus musculus (Mouse), UniProt P70175 147-332); assay: G assay
T1 construct: also called NeDLG1; not shown: glutathione S-transferase (GST) encoded by pGEX-3X
T1 chain: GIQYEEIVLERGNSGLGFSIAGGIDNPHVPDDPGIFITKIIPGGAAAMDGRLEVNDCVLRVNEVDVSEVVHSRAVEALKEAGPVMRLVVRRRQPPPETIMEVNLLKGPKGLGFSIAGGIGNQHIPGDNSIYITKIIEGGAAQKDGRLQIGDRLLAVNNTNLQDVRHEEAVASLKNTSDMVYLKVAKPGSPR

[2] = target: T2, GST-MPP2 PDZ domain fusion protein; assay: A assay
T2 construct: also called maguk p55 subfamily member 2 (DLG2); MMP2; not shown: glutathione S-transferase (GST) encoded by pGEX-3X
T2 chain: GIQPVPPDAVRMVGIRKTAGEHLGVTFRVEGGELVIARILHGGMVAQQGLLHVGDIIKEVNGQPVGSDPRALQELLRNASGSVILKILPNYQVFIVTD

[3] = target: T3, GST-MPP1 PDZ domain fusion protein (Homo sapiens (Human), UniProt Q00013 67-152); assay: A/G assays
T3 construct: also called 55 Kd erythrocyte membrane protein; not shown: glutathione S-transferase (GST) encoded by pGEX-3X
T3 sequence: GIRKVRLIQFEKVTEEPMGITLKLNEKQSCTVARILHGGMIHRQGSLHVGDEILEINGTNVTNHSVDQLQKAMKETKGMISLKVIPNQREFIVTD

[4] = target: T4, GST-LIMK2 PDZ domain fusion protein (human, UniProt P53671 147-237); assay: A/G assays
T4 construct: also called human LIM domain kinase 2; not shown: glutathione S-transferase (GST) encoded by pGEX-3X
T4 sequence: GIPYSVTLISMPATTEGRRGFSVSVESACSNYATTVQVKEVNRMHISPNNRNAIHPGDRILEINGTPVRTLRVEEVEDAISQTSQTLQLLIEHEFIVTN

[5] = target: T5, GST-MINT3 PDZ domain fusion protein (human); assay: A/G assays
T5 construct: also called human MINT3; not shown: glutathione S-transferase (GST) encoded by pGEX-3X
T5 chain: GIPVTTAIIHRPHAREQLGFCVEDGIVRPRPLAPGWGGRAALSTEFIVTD

[6] = target: T6, GST-SYN1a (alpha1-syntrophin) PDZ domain fusion protein (Homo sapiens (Human), UniProt Q13424 84-179); assay: A/G assays
T6 construct: also called SYN 1 α; not shown: glutathione S-transferase (GST) encoded by pGEX-3X
T6 sequence: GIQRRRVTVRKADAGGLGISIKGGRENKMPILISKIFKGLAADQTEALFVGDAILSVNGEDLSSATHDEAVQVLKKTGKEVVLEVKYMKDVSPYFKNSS

[7] = target: T7, GST-DVL1 PDZ domain fusion protein (human); assay: A/G assays
T7 construct: also called human dishevelled segment polarity protein homolog; not shown: glutathione S-transferase (GST) encoded by pGEX-3X
T7 chain: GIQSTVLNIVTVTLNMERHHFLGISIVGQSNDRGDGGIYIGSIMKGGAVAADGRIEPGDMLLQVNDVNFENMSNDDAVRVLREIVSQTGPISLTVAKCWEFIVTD

[8] = target: T8, GST-TAX2 PDZ domain fusion protein (human, UniProt O14908 129-216); assay: A/G assays
T8 construct: not shown: glutathione S-transferase (GST) encoded by pGEX-3X
T8 chain: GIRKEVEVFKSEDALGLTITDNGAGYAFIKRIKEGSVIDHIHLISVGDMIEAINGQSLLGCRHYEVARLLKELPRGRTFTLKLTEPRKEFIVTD

[9] = target: T9, GST-CASK PDZ domain fusion protein (mouse, UniProt O14936 485-575 (human entry)); assay: A/G assays
T9 sequence: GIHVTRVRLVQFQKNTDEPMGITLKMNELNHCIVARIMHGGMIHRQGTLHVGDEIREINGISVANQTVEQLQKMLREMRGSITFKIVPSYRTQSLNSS

[10] = target: T1, GST-NeDLG PDZ domains 1-2 fusion protein; assay: A/G assays
[11] = target: T2, GST-MPP2 PDZ domain fusion protein; assay: A/G assays

Biotin-QGDPALQDAGDSSRKEYFI (also called GC) [Glycophorin C C-terminal peptide AA37L]
binding result [1]: binds
binding result [2]: binds
binding result [3]: no binding
binding result [4]: no binding
binding result [5]: no binding
binding result [6]: no binding
binding result [7]: no binding
binding result [8]: no binding

Biotin-PKQANGGAYQKPTKQEEFYA [CD138 (syndecan) C-terminal peptide AA18L]
binding result [9]: no binding
binding result [4]: no binding
binding result [5]: no binding
binding result [10]: no binding
binding result [6]: no binding
binding result [7]: no binding
binding result [8]: no binding
binding result [11]: no binding
